Measurements: patent US20140286963A1 (Genentech, published 2014)
Where a chain is given by its changes, count along the chain named.

Legend:
[1] = biological target: T1, human BACE1 extracellular domain, amino acids 1-457 of SEQ ID NO:49 (human, UniProt P56817 22-457, biotinylated in the phage sorting, phage ELISAs and the competition ELISA (sites not given)); assay: phage competition ELISA: Fab-displaying phage on plate-immobilized BACE1, serial dilutions of BACE1 in solution
T1 construct: also called human BACE1 ECD; hBACE1
T1 sequence (P56817 22-457): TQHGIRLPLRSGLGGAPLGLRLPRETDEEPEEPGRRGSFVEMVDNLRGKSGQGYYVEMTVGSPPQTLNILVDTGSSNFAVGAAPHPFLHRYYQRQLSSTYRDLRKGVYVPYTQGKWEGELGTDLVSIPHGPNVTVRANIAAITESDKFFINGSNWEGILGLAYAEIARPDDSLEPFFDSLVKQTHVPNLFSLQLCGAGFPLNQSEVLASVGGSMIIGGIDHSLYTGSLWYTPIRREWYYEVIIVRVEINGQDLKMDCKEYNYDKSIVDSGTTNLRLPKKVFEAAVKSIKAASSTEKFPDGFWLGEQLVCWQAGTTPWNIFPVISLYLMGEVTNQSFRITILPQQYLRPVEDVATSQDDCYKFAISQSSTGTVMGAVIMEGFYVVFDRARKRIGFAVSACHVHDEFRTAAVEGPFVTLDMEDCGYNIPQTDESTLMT
Description: (§1) Single colonies (in XL1 blue cells) of the selected clones were picked up and grown in 1 ml 2YT broth supplemented with 50 μg/ml carbenicillin, 10 μg/ml tetracycline and M13KO7 at 37° C. for 2 h. Kanamycin (25 μg/ml) was added to the culture, which continued to grow for 6 h. The culture was transferred to 30 ml 2YT broth supplemented with 50 μg/ml carbenicillin and 25 μg/mlkanamycin and grown at 37° C. overnight. Phage were harvested and purified as previously described (Sidhu, S. S. et al. Methods Enzymol. 328: 333-363 (2000)). The purified Fab-displaying phage were serially diluted in PBT buffer and tested for binding to BACE1 immobilized on a plate. A fixed phage concentration that gives 80% of saturation signals was selected for the subsequent competition ELISA. The competition was conducted by incubating the fixed, sub-saturating Fab-displaying phage with serial dilutions of BACE1 for 1 h and then transferred to the BACE1-immobulized plate for 15 min to capture unbound phage. The plate was then washed for 8 times and bound phage were detected by anti-M13-HRP.
(§2) To estimate the affinity of these 6 clones, phage competition ELISAs were performed, as described above, and IC₅₀ values were determined (FIG. 7). The IC₅₀ values were determined by fitting the data to a four-parameter logistic equation developed by Marquardt (Marquardt, D. W. SIAM J. Appl. Math. 11: 431-441 (1963)) using Kaleidagraph (Synergy Software) and are shown below in Table 2.

[2] = biological target: T1, human BACE1 extracellular domain, amino …; assay: cell-based or functional assay
[3] = biological target: T1, human BACE1 extracellular domain, amino …; assay: one-point competition phage ELISA, plate-immobilized BACE1, 20 nM BACE1 in solution
Description: (§3) Screening of the libraries for affinity maturation of initially obtained antibodies was carried out similarly as described above. […] For rounds 2 and 3, 20 nM and 5 nM biotinylated BACE1 was incubated with amplified phage, respectively. Clones (96) from each of the two libraries were screened in a one-point competition ELISA, where 20 nM of BACE1 was used in solution to compete the phage particle from binding to plate-immobilized BACE1 as described below.
(§4) A plate immobilized with BACE1 was prepared by capturing 2 μg/ml biotinylated BACE1 for 15 min using a 384-well Maxisorp Immunoplate that was previously coated with 2 μg/ml of Neutravidin at 4° C. for overnight and blocked with Blocking Buffer. The culture supernatants from individual clones grown in a 96-well format were diluted 20-fold in PBT buffer and was incubated with or without 20 nM BACE1 at room temperature for 1 h. The mixture was transferred to the plate with immobilized BACE1 and incubated for 15 min. The plate was washed six times by PT buffer and the bound phage was detected by anti-M13-HRP as described above. The ratio between the ELISA signal from the well in the absence and the presence of BACE1 in solution indicates the affinity of the clone, where higher ratios indicate the higher affinities.

[4] = biological target: T1, human BACE1 extracellular domain, amino …; assay: phage competition ELISA IC50, against parent Fab5
Description: as §1, with “The competition was conducted by incubating the fixed, sub-saturating Fab-displaying phage with serial dilutions of BACE1 for 1 h and then transferred to the BACE1-immobulized plate for 15 min to capture unbound phage.” left out
as §2

[5] = biological target: T1, human BACE1 extracellular domain, amino …; assay: one-point phage competition ELISA: ratio of the ELISA signal of Fab-displaying phage on plate-immobilized BACE1 without / with 20 nM BACE1 in solution
Description: as §3, §4

[6] = biological target: T1, human BACE1 extracellular domain, amino …; assay: cell-based or functional assay; remark: listed apart in the source
[7] = biological target: T1, human BACE1 extracellular domain, amino …; assay: phage competition ELISA: Fab-displaying phage incubated with serial dilutions of BACE1 in solution, unbound phage captured on plate-immobilized BACE1, anti-M13-HRP, OD450
Description: as §1, with “The competition was conducted by incubating the fixed, sub-saturating Fab-displaying phage with serial dilutions of BACE1 for 1 h and then transferred to the BACE1-immobulized plate for 15 min to capture unbound phage.” left out
as §2

[8] = biological target: T1, human BACE1 extracellular domain, amino …; assay: phage competition ELISA IC50; parent, reference for LC9, LC10 and LC6
Guinea pig BACE1 = biological target: T2, Guinea pig BACE1 (Guinea pig); assay: SPR (BIAcore-3000), IgG captured by anti-human Fc antibody, pH 7.0
T2 construct: The method text names only the human and murine ECD; The guinea pig construct is not described

[9] = biological target: T3, human BACE2 extracellular domain (human, UniProt Q9Y5Z0 21-473); assay: SPR
T3 construct: extracellular domain; The extracellular domain is stated for the MCE enzyme assay; also called human recombinant BACE2 extracellular domain
T3 sequence (looked up): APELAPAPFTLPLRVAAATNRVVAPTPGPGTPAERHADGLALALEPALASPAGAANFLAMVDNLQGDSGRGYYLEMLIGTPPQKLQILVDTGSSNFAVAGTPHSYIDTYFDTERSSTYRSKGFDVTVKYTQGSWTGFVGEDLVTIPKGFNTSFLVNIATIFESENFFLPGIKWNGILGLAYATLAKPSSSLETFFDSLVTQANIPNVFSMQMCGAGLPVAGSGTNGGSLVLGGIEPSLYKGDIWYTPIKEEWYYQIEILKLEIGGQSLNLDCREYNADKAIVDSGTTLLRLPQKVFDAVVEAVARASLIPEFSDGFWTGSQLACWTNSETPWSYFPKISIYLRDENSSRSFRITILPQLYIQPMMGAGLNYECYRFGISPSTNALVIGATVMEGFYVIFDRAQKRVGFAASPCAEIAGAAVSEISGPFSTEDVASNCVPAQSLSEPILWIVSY

[10] = biological target: T1, human BACE1 extracellular domain, amino …; assay: SPR (BIAcore-3000), second unlabelled row under Human, IgG captured by anti-human Fc antibody, pH 7.0
Description: (§5) Association rates (kₒₙ) and dissociation rates (koff) were calculated using a simple one-to-one Langmuir binding model (BIAcore™ Evaluation Software version 3.2). The equilibrium dissociation constant (KD) was calculated as the ratio koff/kₒₙ.

[11] = biological target: T1, human BACE1 extracellular domain, amino …; assay: SPR (BIAcore-3000), IgG captured by anti-human Fc antibody, BACE1 ECD injected, 25 C, pH 7.0
Description: as §5

[12] = biological target: BACE1 of primary mouse neurons (mouse, UniProt P56818 46-501); assay: cell-based or functional assay
Sequence of BACE1 of primary mouse neurons (P56818 46-501): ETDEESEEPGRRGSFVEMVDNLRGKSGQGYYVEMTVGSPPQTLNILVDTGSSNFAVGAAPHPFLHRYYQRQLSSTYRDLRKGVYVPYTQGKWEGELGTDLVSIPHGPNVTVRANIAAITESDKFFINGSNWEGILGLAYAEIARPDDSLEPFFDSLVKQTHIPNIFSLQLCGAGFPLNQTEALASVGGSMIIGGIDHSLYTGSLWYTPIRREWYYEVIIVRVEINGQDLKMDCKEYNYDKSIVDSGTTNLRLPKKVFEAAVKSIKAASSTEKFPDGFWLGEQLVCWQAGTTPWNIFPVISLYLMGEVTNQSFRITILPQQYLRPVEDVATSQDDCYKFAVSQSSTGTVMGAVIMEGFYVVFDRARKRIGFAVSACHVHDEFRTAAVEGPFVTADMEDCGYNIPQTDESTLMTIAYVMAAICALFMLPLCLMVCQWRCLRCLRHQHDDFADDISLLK

[13] = biological target: BACE1 of 293-HEK cells stably expressing wild-type human APP (UniProt P56817 46-501); assay: cell-based or functional assay
Sequence of BACE1 of 293-HEK cells stably expressing wild-type human APP (P56817 46-501): as the sequence (P56818 46-501) above, with S6P, I162V, I165L, T180S, A182V, V340I, A393L, H443Q counted along it

[14] = biological target: T1, human BACE1 extracellular domain, amino …; assay: phage competition ELISA IC50, against parent Fab14

B1: Fab LC 4 (Fab, V domains shown)
VH: EVQLVESGGGLVQPGGSLRLSCAASGFNLSYSYIHWVRQAPGKGLEWVASIYSSYGSTYYADSVKGRFTISADTSKNTAYLQMNSLRAEDTAVYYCARSYHHSDKYYYAWSYALDYWGQGTLVTVSS
VL: DIQMTQSPSSLSASVGDRVTITCRASQSVSSAVAWYQQKPGKAPKLLIYSASSLYSGVPSRFSGSGSGTDFTLTISSLQPEDFATYYCQQYSYSLLTFGQGTKVEIK
IC50 [1]: 0.46 nM | IC50 (nM), HTRF enzyme activity assay [2]: 480 nM | ratio of ELISA signal in the absence to the presence of BACE1 in solution [3]: > 4 ratio | Fold affinity improvement [4]: 45 fold | Competition ELISA Ratio [5]: 6.3

B2: Fab LC 6 (Fab, V domains shown)
VH: EVQLVESGGGLVQPGGSLRLSCAASGFNFYYSSIHWVRQAPGKGLEWVASISPYSGYTSYADSVKGRFTISADTSKNTAYLQMNSLRAEDTAVYYCARQPTHYYYYAKGYKAMDYWGQGTLVTVSS
VL: B1 VL with Y49S, S50W, S53W, L95P, L96F
IC50 (nM), HTRF enzyme activity assay [2]: 160 nM | improvement in inhibition activity against parent Fab 12, HTRF enzyme activity assay [6]: ~20 fold | IC50 (read off the curve) [7]: ~0.3 nM

B3: Fab 12 (Fab, V domains shown)
VH: B2 VH
VL: B1 VL with L95P, L96F
IC50 [1]: 45.3 nM | Fold affinity improvement [8]: 1 fold

B4: YW412.8.31 anti-BACE1 human IgG (antibody, V domains shown)
VH: EVQLVESGGGLVQPGGSLRLSCAASGFTFLGYGIHWVRQAPGKGLEWVGWISPAGGSTDYADSVKGRFTISADTSKNTAYLQMNSLRAEDTAVYYCARGPFSPWVMDYWGQGTLVTVSS
VL: B1 VL with S28D, S31T, S53F, Y91F, S92P, Y93T, S94Y, L96P
notes: also called YW412.8.31 antibody
Kd (Guinea pig BACE1): 2.6 nM | koff (Guinea pig BACE1): 0.00027 s⁻¹ | kon (Guinea pig BACE1): 100000 M⁻¹ s⁻¹ | binding result [9]: no binding | Kd [10]: 1.32 nM | koff [10]: 0.000139 s⁻¹ | kon [10]: 105000 M⁻¹ s⁻¹ | Kd [11]: 2.9 nM | koff [11]: 0.00031 s⁻¹ | kon [11]: 110000 M⁻¹ s⁻¹ | IC50, Aβ40 production in DRG neurons [12]: 8.4 nM | IC50, Aβ40 production in cortical and hippocampal neurons [12]: 2.3 to 2.6 nM | IC50, Aβ1-40 production in APP-expressing 293 cells [13]: 17 nM | IC50, HTRF long peptide assay [6]: 1.7 nM | IC50, microfluidic capillary electrophoresis assay [6]: 0.08 nM | IC50, short FRET peptide assay [6]: 17 nM

B5: Fab LC10 (Fab, V domains shown)
VH: B2 VH
VL: B1 VL with Y49W, S50W, L95P, L96F
improvement in inhibition activity against parent Fab 12, HTRF enzyme activity assay [6]: ~20 fold

B6: Fab LC 9 (Fab, V domains shown)
VH: B2 VH
VL: B1 VL with Y49W, S50Y, S53W, L95P, L96F
IC50 (nM), HTRF enzyme activity assay [2]: 140 nM | improvement in inhibition activity against parent Fab 12, HTRF enzyme activity assay [6]: ~20 fold

B7: Fab LC 40 (Fab, V domains shown)
VH: EVQLVESGGGLVQPGGSLRLSCAASGFNVSSSSMHWVRQAPGKGLEWVASIYPYSSSTSYADSVKGRFTISADTSKNTAYLQMNSLRAEDTAVYYCARYSYYSYGIDYWGQGTLVTVSS
VL: DIQMTQSPSSLSASVGDRVTITCRASQYSYSYSVAWYQQKPGKAPKLLISYASYLYSGVPSRFSGSGSGTDFTLTISSLQPEDFATYYCQQYSYSYSPITFGQGTKVEIK
IC50 [1]: 4.7 nM | ratio of ELISA signal in the absence to the presence of BACE1 in solution [3]: > 3 ratio | Fold affinity improvement [14]: 3 fold | Competition ELISA Ratio [5]: 3
